Numbered stars: 1 amine (or outer) side, 2 acyl side, 3 side chain; on linkers, the order of the positions; unused ones are H or OH. Bridge positions count the residues as written; N and C are the ends. Side chains are listed from the residue outwards. Ends that are not written are not given here. * marks the point of attachment. C20 diacid = O=C(O)CCCCCCCCCCCCCCCCCCC(=O)*; γGlu = O=C(O)[C@H](CCC(=O)[*:2])N[*:1]; AEEA = NCCOCCOCC(=O)O
T1: human calcitonin receptor (human, UniProt P30988 25-474)
T1 construct: whole, on cells; Assayed as cell membranes of BHK tk'ts 13 cells stably transfected with the human calcitonin receptor (Assay VII); also called hCTR; hCT
T1 sequence (looked up): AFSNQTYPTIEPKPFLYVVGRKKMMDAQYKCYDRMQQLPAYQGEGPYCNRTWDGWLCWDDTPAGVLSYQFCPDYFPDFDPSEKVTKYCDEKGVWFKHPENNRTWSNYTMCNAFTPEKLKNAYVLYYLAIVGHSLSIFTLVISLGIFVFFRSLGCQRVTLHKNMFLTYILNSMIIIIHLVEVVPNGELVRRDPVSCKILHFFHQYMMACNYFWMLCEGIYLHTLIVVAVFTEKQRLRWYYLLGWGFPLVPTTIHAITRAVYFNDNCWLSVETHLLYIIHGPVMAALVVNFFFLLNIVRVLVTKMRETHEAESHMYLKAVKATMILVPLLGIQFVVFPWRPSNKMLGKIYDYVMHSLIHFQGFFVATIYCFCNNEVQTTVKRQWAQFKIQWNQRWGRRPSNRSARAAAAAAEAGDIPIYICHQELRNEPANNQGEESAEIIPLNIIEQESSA

B1: N^ε1-[2-[2-[2-[[(4S)-4-carboxy-4-(19-carboxynonadecanoylamino)butanoyl]amino]ethoxy]ethoxy]acetyl]-[Arg17,Pro21,Pro27,His34]-h-amylin (peptide)
peptide: K([AEEA-γGlu-C20 diacid])CNTATCATQRLANFLRHSSPNFGAIPSSTNVGHNTY-NH2
modifications: disulfide 2-7; N-terminus assumed
SMILES: CC[C@H](C)[C@H](NC(=O)[C@H](C)NC(=O)CNC(=O)[C@H](Cc1ccccc1)NC(=O)[C@H](CC(N)=O)NC(=O)[C@@H]1CCCN1C(=O)[C@H](CO)NC(=O)[C@H](CO)NC(=O)[C@H](Cc1c[nH]cn1)NC(=O)[C@H](CCCNC(=N)N)NC(=O)[C@H](CC(C)C)NC(=O)[C@H](Cc1ccccc1)NC(=O)[C@H](CC(N)=O)NC(=O)[C@H](C)NC(=O)[C@H](CC(C)C)NC(=O)[C@H](CCCNC(=N)N)NC(=O)[C@H](CCC(N)=O)NC(=O)[C@@H](NC(=O)[C@H](C)NC(=O)[C@@H]1CSSC[C@H](NC(=O)[C@@H](N)CCCCNC(=O)COCCOCCNC(=O)CC[C@H](NC(=O)CCCCCCCCCCCCCCCCCCC(=O)O)C(=O)O)C(=O)N[C@@H](CC(N)=O)C(=O)N[C@@H]([C@@H](C)O)C(=O)N[C@@H](C)C(=O)N[C@@H]([C@@H](C)O)C(=O)N1)[C@@H](C)O)C(=O)N1CCC[C@H]1C(=O)N[C@@H](CO)C(=O)N[C@@H](CO)C(=O)N[C@H](C(=O)N[C@@H](CC(N)=O)C(=O)N[C@H](C(=O)NCC(=O)N[C@@H](Cc1c[nH]cn1)C(=O)N[C@@H](CC(N)=O)C(=O)N[C@H](C(=O)N[C@@H](Cc1ccc(O)cc1)C(N)=O)[C@@H](C)O)C(C)C)[C@@H](C)O
notes: also called compound 76
B2: N^ε1-[2-[2-[2-[[(4S)-4-carboxy-4-(19-carboxynonadecanoylamino)butanoyl]amino]ethoxy]ethoxy]acetyl]-[Arg17,Pro21,Pro27,Pro28,Pro34]-h-amylin (peptide)
peptide: K([AEEA-γGlu-C20 diacid])CNTATCATQRLANFLRHSSPNFGAIPPSTNVGPNTY-NH2
modifications: disulfide 2-7; N-terminus assumed
SMILES: CC[C@H](C)[C@H](NC(=O)[C@H](C)NC(=O)CNC(=O)[C@H](Cc1ccccc1)NC(=O)[C@H](CC(N)=O)NC(=O)[C@@H]1CCCN1C(=O)[C@H](CO)NC(=O)[C@H](CO)NC(=O)[C@H](Cc1c[nH]cn1)NC(=O)[C@H](CCCNC(=N)N)NC(=O)[C@H](CC(C)C)NC(=O)[C@H](Cc1ccccc1)NC(=O)[C@H](CC(N)=O)NC(=O)[C@H](C)NC(=O)[C@H](CC(C)C)NC(=O)[C@H](CCCNC(=N)N)NC(=O)[C@H](CCC(N)=O)NC(=O)[C@@H](NC(=O)[C@H](C)NC(=O)[C@@H]1CSSC[C@H](NC(=O)[C@@H](N)CCCCNC(=O)COCCOCCNC(=O)CC[C@H](NC(=O)CCCCCCCCCCCCCCCCCCC(=O)O)C(=O)O)C(=O)N[C@@H](CC(N)=O)C(=O)N[C@@H]([C@@H](C)O)C(=O)N[C@@H](C)C(=O)N[C@@H]([C@@H](C)O)C(=O)N1)[C@@H](C)O)C(=O)N1CCC[C@H]1C(=O)N1CCC[C@H]1C(=O)N[C@@H](CO)C(=O)N[C@H](C(=O)N[C@@H](CC(N)=O)C(=O)N[C@H](C(=O)NCC(=O)N1CCC[C@H]1C(=O)N[C@@H](CC(N)=O)C(=O)N[C@H](C(=O)N[C@@H](Cc1ccc(O)cc1)C(N)=O)[C@@H](C)O)C(C)C)[C@@H](C)O
notes: also called compound 55

Each binder was assayed against T1, human calcitonin receptor (assay: IC50 at hCTR divided by IC50 at hAmylin-R (SPA competition assays V and VII)).
Procedure, shortened: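 Scintillation proximity competition binding on cell membranes at 35 ng/μL with SPA beads, in 50 mM Hepes pH 7.4, 1 mM CaCl2, 5 mM MgCl₂, 0.1% OA, 0.02% Tween20. Incubated 120 min at 25° C with shaking. IC₅₀ from one-site competition fit.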

Binder	Ratio hCT/hAmylin binding
B1	80
K([AEEA-γGlu-C20 diacid])CNTATCATQRLANFLRHSSPNFGAIPPSTPVGSNTY-NH2 (disulfide 2-7, also called compound 53)	104
B2	51.8

The binders below were run against T1, human calcitonin receptor (assay: SPA competition vs 125I-calcitonin, membranes of BHK cells with human calcitonin receptor (Assay VII)).
Procedure, shortened: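 BHK hCTR membranes 35 ng/μL + SPA beads 0.05 mg/well; buffer 50 mM Hepes pH 7.4, 1 mM CaCl2, 5 mM MgCl₂, 0.1% OA, 0.02% Tween20. 120 min, 25° C., shaking. Scintillation count; IC50 by one-site binding competition.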

Binder	IC50
B1	17.2 nM
K([AEEA-γGlu-C20 diacid])CNTATCATQRLANFLRHSSPNFGAIPPSTPVGSNTY-NH2 (disulfide 2-7, also called compound 53)	5.38 nM
B2	2.17 nM
